Data published in patent publication US7749968B2, “Peptides for targeting the prostate specific membrane antigen” (The Johns Hopkins University, priority 2002, dated 2010).

Target: T1, Tag-xPSM (Homo sapiens, UniProt Q04609)
T1 construct: made in house; host or cells: Sf-9 insect cells infected with recombinant baculovirus; protein harvested from the media
Test: Tag-xPSM phage display selection (agarose/cellulose), sequencing of selected phage
Format: binding
Experimental: 100 μl of S-protein agarose (2× in RPMI 1640+1% Fetal Bovine Serum (FBS) and 100 μl of CBind Resin (10 mg/ml in RPMI 1640+1% FBS) without fusion protein were used to negatively select the original phage display library. 2×10^11 plaque forming units (PFU) of 1.29×10^9 different sequence phage were incubated with each aliquot of resin for 1 hr at 37° C., while rotating. The S-tag agarose was pelleted and supernatant saved as the agarose counter-selected pool. The cellulose resin was transferred onto 200 μl of 9:1 dibutyl phthalate:cyclohexane and the resin pelleted through the organic phase. The aqueous supernatant was saved as the cellulose counter-selected pool. Each counter selected pool was then added to tag-xPSM agarose or cellulose resin and incubated for 1 hr at 37° C., while rotating. The tag-xPSM agarose was pelleted and washed three times in RPMI 1640+1% FBS. The agarose pellet was then saved for phage isolation. The Tag-xPSM cellulose was transferred onto 200 μl of 9:1 dibutyl phthalate:cyclohexane and the resin pelleted through the organic phase. The tube was then snap frozen in liquid nitrogen to isolate the resin pellet. Over 75% of Tag-xPSM remained bound to the cellulose resin through these conditions. The resulting phage-bound tag-xPSM agarose and tag-xPSM cellulose were then resuspended in 200 μl of log phage ER2738 cells and phage allowed to infect 1 hour at room temperature. A small aliquot was taken at this time to quantitate the number of phage bound per round of selection. The remaining PSMA bound phage was then amplified, tittered, and applied to the next round of phage display. There was only one counter-selection round, followed by a total of five positive selection rounds, applying between 10^10 to 10^11 PFU per round. The final round of selection included cross-selections, where selected phage pools from one PSMA background where applied to the other. Individual phage were isolated and sequenced from rounds three through five.
Individual phage plaques were amplified for 5 hours in ER2738 cells at 37° C. Amplified supernatant was incubated 1:1 with PEG/NaCl buffer (20% PEG 8000, 2.5 M NaCl) for 10 minutes at room temperature. Phage were microfuged 10 minutes at 20,000 g, 4° C. The phage pellet was suspended in 100 μl Iodide buffer (10 mM Tris-HCl, pH 8.0, 1 mM EDTA, 4M NaI). Single stranded DNA (ssDNA) was precipitated with 250 μl of 100% ethanol, pelleted, and washed in 70% ethanol. Each ssDNA pellet was suspended in 30 μl 10 mM Tris, pH 7.4. Each phage was sequenced using the Amersham DYE ET mix, by incubating 6 μl ssDNA, 1 μl of 5 μM-96 pill Sequencing Primer ([…]; SEQ ID NO:108), and 8 μl of DYE ET mix in a 96 well PCR plate and amplified by 30 cycles of 95° C. for 20 seconds, 50° C. for 15 seconds, and 60° C. for 1 minute. Sequencing reaction products were spun through G50-fine Sephadex column plates, prepared on Millipore-multiscreen plates. Products were sequenced and analyzed on the MegaBACE capillary sequencer. All sequences, minus the flanking cysteines, were aligned using the Baylor College of Medicine Clustal W1.8 Global Progressive Alignment (available online) with data presented by Boxshade 3.21 software (available online through the Swiss Institute for Bioinformatics).
2×10^11 plaque-forming units (PFU) of the library was incubated with each aliquot of resin for one hour at 37° C., while rotating. The S-tag agarose was pelleted and the supernatant saved as the agarose counter-selected pool. The cellulose resin was transferred onto a 9:1 ratio of dibutyl phthalate:cyclohexane and the resin centrifuged through the organic phase. The aqueous supernatant was saved as the cellulose counter-selected pool. Each counter selected pool was then added to tag-xPSM agarose or cellulose resin, respectively, and incubated for one hour at 37° C., while rotating (see FIG. 2). The Tag-xPSM agarose was pelleted, washed, and saved for phage isolation. […]

T1 sequence (Q04609 44-750 limits assumed): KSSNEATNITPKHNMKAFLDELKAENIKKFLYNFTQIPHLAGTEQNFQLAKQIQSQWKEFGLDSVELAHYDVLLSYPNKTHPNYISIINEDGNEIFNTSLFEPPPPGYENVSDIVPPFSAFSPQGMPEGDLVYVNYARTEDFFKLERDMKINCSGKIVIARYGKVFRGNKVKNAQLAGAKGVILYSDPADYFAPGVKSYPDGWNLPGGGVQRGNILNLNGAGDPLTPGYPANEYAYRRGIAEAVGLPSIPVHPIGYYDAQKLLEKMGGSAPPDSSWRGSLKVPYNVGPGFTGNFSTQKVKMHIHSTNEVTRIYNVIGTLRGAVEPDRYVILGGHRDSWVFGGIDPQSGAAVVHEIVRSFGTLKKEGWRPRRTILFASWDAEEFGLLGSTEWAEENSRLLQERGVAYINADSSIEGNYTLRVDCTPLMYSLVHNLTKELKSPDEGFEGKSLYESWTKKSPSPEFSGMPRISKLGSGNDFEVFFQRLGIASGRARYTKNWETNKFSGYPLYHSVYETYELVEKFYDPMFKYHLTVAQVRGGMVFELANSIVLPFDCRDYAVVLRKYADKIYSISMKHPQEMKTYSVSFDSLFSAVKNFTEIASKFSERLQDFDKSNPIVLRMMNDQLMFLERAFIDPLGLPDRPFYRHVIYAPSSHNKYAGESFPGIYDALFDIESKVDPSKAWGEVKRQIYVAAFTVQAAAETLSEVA

Row | Sequence | Number of times sequence was found, Round 3 (Agarose) | Number of times sequence was found, Round 4 (Agarose) | Number of times sequence was found, Round 5 (Agarose) | Number of times sequence was found, Round 3 (Cellulose) | Number of times sequence was found, Round 4 (Cellulose) | Number of times sequence was found, Round 5 (Cellulose)
1 | CLSSNSSLC [SEQ ID NO:28] | 0 | 0/0 | 0/0 | 1 | 0/0 | 0/0
2 | CPIMLSEPC [SEQ ID NO:26] | 1 | 0/0 | 0/0 | 0 | 0/0 | 0/0
3 | CLSTTISYC [SEQ ID NO:21] | 0/0 | 0 | 0/0 | 0/0 | 1 | 0/0
4 | CTPLSPRYC [SEQ ID NO:12] | 0/0 | 0 | 0/0 | 0/0 | 1 | 0/0
5 | CKHSVSPSC [SEQ ID NO:18] | 0/0 | 0 | 0/0 | 0/0 | 1 | 0/0
6 | CSSHSTVHC [SEQ ID NO:7] | 0/0 | 0/0 | 0 | 0/0 | 0/0 | 1
7 | CLKSHSHQC [SEQ ID NO:15] | 0/0 | 0 | 0/0 | 0/0 | 1 | 0/0
8 | CHTSLKTHC [SEQ ID NO:14] | 0/0 | 0 | 0/0 | 0/0 | 1 | 0/0
9 | CSHNDTRHC [SEQ ID NO:4] | 0/0 | 0/0 | 0 | 0/0 | 0/0 | 1
10 | CSTRAPHLC [SEQ ID NO:5] | 0/0 | 0/0 | 0 | 0/0 | 0/0 | 1
11 | CQTPYDLRC [SEQ ID NO:10] | 0/0 | 0/0 | 0 | 0/0 | 0/0 | 1
12 | CHTKHASHC [SEQ ID NO:6] | 0/0 | 0/0 | 0 | 0/0 | 0/0 | 1
13 | CTSNNSAIC [SEQ ID NO:27] | 0 | 0/0 | 0/0 | 1 | 0/0 | 0/0
14 | CHTTTDVYC [SEQ ID NO:25] | 1 | 0/0 | 0/0 | 0 | 0/0 | 0/0
